Consider 125 sequences from the supplement of paper PMC9112550, “Optimization of the antimicrobial peptide Bac7 by deep mutational scanning” (BMC Biology, 2022).

For this series, the system named is Escherichia coli TOP10. The series is described as follows: shrunken log2 fold change of peptide-encoding DNA abundance (4.5 h post-induction vs induction); higher = less antimicrobial activity (less host growth inhibition). The settings on record: time post-induction: 4.5 h; library: site-saturation at positions 5, 18, 19, 20.
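Further: peptides expressed intracellularly from a pBAD plasmid library in pooled LB shake-flask culture, induced with 0.3% L-arabinose, DNA abundance read by NGS, three biological replicates, DESeq2 with apeglm shrinkage.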

With RRIRFRPPRLPRPRPRPDWIPRP, the “shrunken log2 fold change” value is -0.114. With RRIRFRPPRLPRPRPRPHCKPRP the figure was -0.112. Take RRIRHRPPRLPRPRPRPEWTPRP: the “shrunken log2 fold change” value worked out at 0.0291.

With RRIRYRPPRLPRPRPRPLGCPRP, the “shrunken log2 fold change” value is -0.198. With RRIRIRPPRLPRPRPRPVWQPRP the figure was 0.536; with RRIRWRPPRLPRPRPRPWRNPRP, 0.0636; with RRIRNRPPRLPRPRPRPLQCPRP, -0.00595. With RRIRVRPPRLPRPRPRPVKPPRP the figure was 0.247. With RRIRWRPPRLPRPRPRPRYDPRP the figure was -0.248; with RRIRNRPPRLPRPRPRPQDDPRP, 0.00776. Take RRIRRRPPRLPRPRPRPNCEPRP: the “shrunken log2 fold change” value was determined as 0.227. On to RRIRLRPPRLPRPRPRPGFNPRP, for which the “shrunken log2 fold change” value is -0.0341.

As for RRIRQRPPRLPRPRPRPHRRPRP, the “shrunken log2 fold change” value was -0.185.

Consider RRIRNRPPRLPRPRPRPPAMPRP, for which the “shrunken log2 fold change” value worked out at 0.124. With RRIRYRPPRLPRPRPRPAGFPRP the figure was -0.0806. On to RRIRPRPPRLPRPRPRPELVPRP, for which the “shrunken log2 fold change” value came out at 0.442. With RRIRSRPPRLPRPRPRPCAAPRP the figure was 0.312; with RRIRLRPPRLPRPRPRPNQNPRP, -0.276; with RRIRYRPPRLPRPRPRPNKGPRP, -0.618. With RRIRFRPPRLPRPRPRPTWNPRP the figure was -0.166; with RRIRPRPPRLPRPRPRPLSVPRP, -0.121; with RRIRTRPPRLPRPRPRPTWHPRP, 0.153. With RRIRDRPPRLPRPRPRPDWCPRP the figure was 0.163. Regarding RRIRARPPRLPRPRPRPPTTPRP, the “shrunken log2 fold change” value is 0.775.

RRIRMRPPRLPRPRPRPQDRPRP: the “shrunken log2 fold change” value turned out to be 0.179. With RRIRTRPPRLPRPRPRPNKTPRP the figure was -0.0171; with RRIRMRPPRLPRPRPRPMTIPRP, -0.329. On to RRIRARPPRLPRPRPRPLEDPRP, for which the “shrunken log2 fold change” value stood at 0.241. Regarding RRIRIRPPRLPRPRPRPLLNPRP, the “shrunken log2 fold change” value was -0.731.

On to RRIRKRPPRLPRPRPRPYEHPRP, for which the “shrunken log2 fold change” value was determined as 0.049. For the sequence RRIRDRPPRLPRPRPRPFFDPRP, the “shrunken log2 fold change” value came to 0.266. In the case of RRIRGRPPRLPRPRPRPISYPRP, the “shrunken log2 fold change” value was -0.0956.

As for RRIRQRPPRLPRPRPRPTIWPRP, the “shrunken log2 fold change” value is -0.0969. With RRIRHRPPRLPRPRPRPCLYPRP the figure was -0.057; with RRIRNRPPRLPRPRPRPEGRPRP, 0.177; with RRIRPRPPRLPRPRPRPHYAPRP, -0.15. RRIRGRPPRLPRPRPRPMVKPRP: the “shrunken log2 fold change” value was 0.00813. With RRIRHRPPRLPRPRPRPWSAPRP the figure was -0.547.

Turning to RRIRRRPPRLPRPRPRPCAHPRP, the “shrunken log2 fold change” value came out at 0.067.

Turning to RRIRARPPRLPRPRPRPINTPRP, the “shrunken log2 fold change” value was -0.631. In the case of RRIRRRPPRLPRPRPRPVLEPRP, the “shrunken log2 fold change” value worked out at 0.599. For RRIRHRPPRLPRPRPRPIEYPRP, the “shrunken log2 fold change” value was -0.129.

With RRIRKRPPRLPRPRPRPGWGPRP, the “shrunken log2 fold change” value amounted to 0.432.

For RRIRCRPPRLPRPRPRPNNDPRP, the “shrunken log2 fold change” value was -0.643.

Regarding RRIRTRPPRLPRPRPRPESMPRP, the “shrunken log2 fold change” value was 0.0954.

As to RRIRWRPPRLPRPRPRPMRAPRP, the “shrunken log2 fold change” value turned out to be 1.2. With RRIRMRPPRLPRPRPRPNHIPRP the figure was -0.407; with RRIRMRPPRLPRPRPRPRPVPRP, 1.17. Turning to RRIRVRPPRLPRPRPRPELKPRP, the “shrunken log2 fold change” value is -0.341.

RRIRHRPPRLPRPRPRPYLSPRP: the “shrunken log2 fold change” value was -0.221. With RRIRKRPPRLPRPRPRPWWGPRP the figure was 0.0849; with RRIRQRPPRLPRPRPRPMTWPRP, -0.0225; with RRIRIRPPRLPRPRPRPMHWPRP, -0.194. On to RRIRCRPPRLPRPRPRPLPCPRP, for which the “shrunken log2 fold change” value stood at 0.0339. With RRIRLRPPRLPRPRPRPMCLPRP the figure was -0.166; with RRIRDRPPRLPRPRPRPAHRPRP, -0.0802; with RRIRARPPRLPRPRPRPLLTPRP, 0.667. As to RRIRLRPPRLPRPRPRPTPAPRP, the “shrunken log2 fold change” value turned out to be 0.306.

Take RRIRVRPPRLPRPRPRPTDRPRP: the “shrunken log2 fold change” value was -0.00137. With RRIRYRPPRLPRPRPRPCFPPRP the figure was -1.06. With RRIRWRPPRLPRPRPRPLADPRP the figure was 1.06; with RRIRCRPPRLPRPRPRPDERPRP, -0.149; with RRIRRRPPRLPRPRPRPWHWPRP, 0.183. With RRIRRRPPRLPRPRPRPNCAPRP the figure was 0.32; with RRIRARPPRLPRPRPRPYQPPRP, 0.589. In the case of RRIRMRPPRLPRPRPRPKCLPRP, the “shrunken log2 fold change” value came to 0.148. With RRIRDRPPRLPRPRPRPLGPPRP the figure was 0.191; with RRIRNRPPRLPRPRPRPTADPRP, 0.422; with RRIRERPPRLPRPRPRPVENPRP, -0.0218.

Take RRIRKRPPRLPRPRPRPGISPRP: the “shrunken log2 fold change” value amounted to 0.249. For RRIRVRPPRLPRPRPRPKGWPRP, the “shrunken log2 fold change” value was determined as 0.684. In the case of RRIRVRPPRLPRPRPRPQFRPRP, the “shrunken log2 fold change” value was -1.21. Take RRIRKRPPRLPRPRPRPSCSPRP: the “shrunken log2 fold change” value was -0.0597. With RRIRDRPPRLPRPRPRPTMHPRP the figure was 0.61; with RRIRVRPPRLPRPRPRPAVRPRP, 0.123. With RRIRGRPPRLPRPRPRPGWSPRP the figure was 0.758.

Regarding RRIRERPPRLPRPRPRPAWMPRP, the “shrunken log2 fold change” value turned out to be 0.501. With RRIRLRPPRLPRPRPRPQSPPRP the figure was -0.0515.

Consider RRIRCRPPRLPRPRPRPNAVPRP, for which the “shrunken log2 fold change” value stood at 0.0238. RRIRMRPPRLPRPRPRPAVHPRP: the “shrunken log2 fold change” value stood at 0.0654. With RRIRIRPPRLPRPRPRPRACPRP the figure was -0.148; with RRIRRRPPRLPRPRPRPYFWPRP, 0.0638. With RRIRPRPPRLPRPRPRPMWPPRP the figure was 0.213; with RRIRHRPPRLPRPRPRPSCFPRP, -0.257; with RRIRMRPPRLPRPRPRPKFYPRP, 0.0127. With RRIRLRPPRLPRPRPRPAKHPRP the figure was -0.221. For the sequence RRIRNRPPRLPRPRPRPQVDPRP, the “shrunken log2 fold change” value is -0.706. With RRIRYRPPRLPRPRPRPNICPRP the figure was -0.204; with RRIRTRPPRLPRPRPRPCGPPRP, -0.0329. With RRIRHRPPRLPRPRPRPIGEPRP the figure was -0.00286; with RRIRRRPPRLPRPRPRPLQEPRP, 0.019; with RRIRYRPPRLPRPRPRPTPEPRP, 0.264. With RRIRCRPPRLPRPRPRPFHTPRP the figure was -0.0266; with RRIRDRPPRLPRPRPRPVPMPRP, 0.115; with RRIRERPPRLPRPRPRPIAWPRP, -0.199. On to RRIRIRPPRLPRPRPRPKNPPRP, for which the “shrunken log2 fold change” value is -0.439. Take RRIRSRPPRLPRPRPRPESSPRP: the “shrunken log2 fold change” value was found to be 0.00287.

For RRIRFRPPRLPRPRPRPRYNPRP, the “shrunken log2 fold change” value is -0.323.

As to RRIRYRPPRLPRPRPRPVHHPRP, the “shrunken log2 fold change” value is -0.211. As for RRIRHRPPRLPRPRPRPVGEPRP, the “shrunken log2 fold change” value worked out at 0.053. With RRIRGRPPRLPRPRPRPDVTPRP the figure was 1.31; with RRIRMRPPRLPRPRPRPFFLPRP, -0.199. With RRIRKRPPRLPRPRPRPERIPRP the figure was 0.00934; with RRIRGRPPRLPRPRPRPPGGPRP, 1.18; with RRIRLRPPRLPRPRPRPLMDPRP, -0.0257. With RRIRQRPPRLPRPRPRPGWNPRP the figure was -0.0526. Turning to RRIRVRPPRLPRPRPRPTSTPRP, the “shrunken log2 fold change” value was -0.103. With RRIRSRPPRLPRPRPRPAYKPRP the figure was -0.136.

Turning to RRIRCRPPRLPRPRPRPLVAPRP, the “shrunken log2 fold change” value came to 0.033.

In the case of RRIRWRPPRLPRPRPRPPCLPRP, the “shrunken log2 fold change” value turned out to be 0.186. With RRIRKRPPRLPRPRPRPHWEPRP the figure was -0.102; with RRIRDRPPRLPRPRPRPNYAPRP, -0.457.

For the sequence RRIRTRPPRLPRPRPRPRTEPRP, the “shrunken log2 fold change” value turned out to be 0.153. Consider RRIRERPPRLPRPRPRPASHPRP, for which the “shrunken log2 fold change” value was -0.34.

For the sequence RRIRPRPPRLPRPRPRPHFLPRP, the “shrunken log2 fold change” value was -0.168.

RRIRNRPPRLPRPRPRPCIQPRP: the “shrunken log2 fold change” value amounted to 0.00396. With RRIRNRPPRLPRPRPRPTYDPRP the figure was -0.396; with RRIRERPPRLPRPRPRPWRCPRP, -0.0332; with RRIRMRPPRLPRPRPRPRSFPRP, 0.307. With RRIRIRPPRLPRPRPRPQDPPRP the figure was -0.235; with RRIRMRPPRLPRPRPRPFHFPRP, -0.313. For the sequence RRIRSRPPRLPRPRPRPWVQPRP, the “shrunken log2 fold change” value stood at 0.127. For the sequence RRIRWRPPRLPRPRPRPLWIPRP, the “shrunken log2 fold change” value was -0.115.

As to RRIRSRPPRLPRPRPRPQWMPRP, the “shrunken log2 fold change” value was -0.155. With RRIRWRPPRLPRPRPRPAQPPRP the figure was 0.236.
